Data: paper PMC5983854, “Structure-guided approach to site-specific fluorophore labeling of the lac repressor LacI” (PLoS ONE, 2018)

Columns and labels:
[1] = tested on: LacIDimer-S28C (Escherichia coli); experiment: EMSA; settings: apparent Kd; 3 mM MgCl2; EMSA: 1 nM DNA, 0.5-100 nM LacI, 10 mM Tris pH 7.5, 50 mM NaCl, 3 mM MgCl2, 1 mM TCEP, 0.1 mg/mL BSA, 5% glycerol, room temperature 1 h; TIRF: 100 mM phosphate
[2] = biological target: the molecule itself; experiment: SEC; analytical gel filtration on HiLoad 16/600 Superdex 200, 0.2 mL/min, buffer C (200 mM Tris-HCl pH 7.5, 200 mM KCl, 1 mM EDTA, 0.5 mM TCEP); column calibrated with proteins of known molecular weight; dimer to monomers

| Molecule | Kd [1] | stoichiometry N [2] |
| --- | --- | --- |
| 5'-Cy5 O1 operator dsDNA | 5.63 nM | – |
| LacI^ΔCterm (lactose operon repressor LacI, tetramerization helix residues 339-360 replaced with a 6xHis tag) (domain or fragment, E. coli, UniProt P03023 1-338, looked up, Lactose operon repressor LacI, E. coli, 360 amino acid monomer; the native 22 C-terminal amino acids (tetramerization helix, residues 339-360) are replaced with a 6xHis tag, the rest is wild type; only the replaced stretch 339-360 is printed; source: E. coli TOP10 (pBAD24, arabinose-induced), purified (HisTrap HP, Superdex 200 SEC); not shown: His6, C-terminal, kept) MKPVTLYDVAEYAGVSYQTVSRVVNQASHVSAKTREKVEAAMAELNYIPNRVAQQLAGKQSLLIGVATSSLALHAPSQIVAAIKSRADQLGASVVVSMVERSGVEACKAAVHNLLAQRVSGLIINYPLDDQDAIAVEAACTNVPALFLDVSDQTPINSIIFSHEDGTRLGVEHLVALGHQQIALLAGPLSSVSARLRLAGWHKYLTRNQIQPIAEREGDWSAMSGFQQTMQMLNEGIVPTAMLVANDQMALGAMRAITESGLRVGADISVVGYDDTEDSSCYIPPLTTIKQDFRLLGQTSVDRLLQLSQGQAVKGNQLLPVSLVKRKTTLAPNTQTAS | – | 2 |
| LacI^Dimer (LacI^ΔCterm with C107A, C140A; Cys281 retained) (domain or fragment, E. coli, UniProt P03023 1-338, looked up, Lactose operon repressor LacI, E. coli; residues 339-360 replaced with a 6xHis tag; Cys107 and Cys140 replaced with alanine, Cys281 retained; source: E. coli TOP10 (pBAD24, arabinose-induced), purified (HisTrap HP, Superdex 200 SEC); not shown: His6, C-terminal, kept) MKPVTLYDVAEYAGVSYQTVSRVVNQASHVSAKTREKVEAAMAELNYIPNRVAQQLAGKQSLLIGVATSSLALHAPSQIVAAIKSRADQLGASVVVSMVERSGVEAAKAAVHNLLAQRVSGLIINYPLDDQDAIAVEAAATNVPALFLDVSDQTPINSIIFSHEDGTRLGVEHLVALGHQQIALLAGPLSSVSARLRLAGWHKYLTRNQIQPIAEREGDWSAMSGFQQTMQMLNEGIVPTAMLVANDQMALGAMRAITESGLRVGADISVVGYDDTEDSSCYIPPLTTIKQDFRLLGQTSVDRLLQLSQGQAVKGNQLLPVSLVKRKTTLAPNTQTAS | – | 2 |
